In the supplement of paper PMC10567573:

B1: ZNF232 (parent)
chain: GKAYGWCSELIRHRRVHARKEPSH
B2: GLTSCR2 (parent)
chain: FQRRNMIEPRERAKFKRKYKVKLV

Variants of: B1
Assay: protein stability index of a GFP-peptide fusion (GPS, HEK-293T) (PSI 1-6); higher = more stable
Settings: c terminus: a fixed tail appended
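Further: lentivirally expressed fusions sorted by FACS into six bins by GFP to DsRed ratio, PSI derived from sequencing read proportions per bin multiplied by bin number.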

Protein stability index: each site, then its substitutions
E21: Y 2.81 | F 2.04 | V 3.1 | K 3.15 | I 2.46 | S 3.3 | W 2.19 | A 2.92 | G 2.58 | P 2.79 | M 2.37 | C 2.36 | D 2.75 | R 3.3 | H 2.63 | N 3.24 | T 2.69 | L 1.91 | Q 2.69
V16: G 3.53 | R 3.67 | L 2.9 | F 2.87 | M 3.43 | T 3.07 | E 3.16 | C 2.52 | K 3.22 | Y 2.74 | A 2.71 | I 2.42 | W 2.55 | P 3.35 | D 3.49 | Q 3.53 | N 3.26 | H 3.41 | S 3.48
A18: E 3.74 | W 1.83 | H 2.86 | N 2.84 | Y 2.76 | C 2.88 | D 3.84 | P 3.33 | K 3.19 | I 3.04 | L 2.13 | R 3.28 | F 2.49 | V 2.59 | T 3.28 | M 3.25 | Q 2.81 | G 3 | S 3.37
R15: E 3.28 | Y 2.38 | N 2.93 | C 1.99 | L 2.02 | T 3.19 | W 2.25 | F 2.45 | S 3.36 | H 2.92 | M 3.16 | P 3.25 | Q 3.07 | D 2.61 | A 2.81 | V 2.44 | K 3 | I 2.56 | G 2.61
K20: R 2.12 | E 3.07 | W 1.82 | M 2.18 | Y 1.86 | L 1.93 | N 2.58 | P 2.62 | D 3.45 | S 2.86 | I 2.05 | A 3.19 | F 1.9 | Q 2.8 | G 2.86 | T 3.28 | C 2.6 | V 3.22 | H 2.97
P22: L 2.93 | I 2.27 | R 3.17 | D 3.14 | H 3.42 | Q 3.38 | A 3.39 | F 1.8 | K 2.92 | M 2.3 | N 2.98 | T 3.02 | W 1.79 | Y 3.58 | G 2.71 | C 2.52 | E 4.22 | S 3.21 | V 2.82
R14: K 2.61 | T 2.62 | V 2.45 | Q 3.08 | Y 2.05 | N 3.23 | I 2.04 | S 2.27 | W 1.94 | L 2.03 | P 2.95 | M 1.73
H24: M 2.5 | S 3.07 | N 3.65 | I 2.49 | D 3.61 | T 2.97 | E 2.44 | K 3.55 | W 2.03 | Y 2.46 | P 3.08 | A 3.08 | G 3.7 | R 3.15 | Q 2.25 | L 2.68 | C 2.78 | F 2.65 | V 3.54
S23: H 3.16 | F 2.43 | A 2.61 | W 1.76 | L 2.54 | Q 2.98 | V 2.82 | R 2.93 | D 3.66 | C 2.58 | Y 2.19 | N 3.05 | E 3.92 | M 2.12 | T 3.03 | K 3.49 | I 2.48 | P 2.95 | G 3.32
R19: A 2.54 | P 2.37 | F 2.15 | Q 3.44 | V 2.52 | I 3.09 | W 2.15 | S 2.8 | L 1.94 | Y 1.81 | G 3.01 | D 3.31 | T 2.89 | C 2.68 | E 3.53 | N 3.81 | M 3.18 | K 2.82 | H 2.66
H17: M 2.75 | K 3.32 | G 3.57 | P 3.02 | Q 3.04 | T 3.28 | L 2.99 | S 2.76 | C 3.46 | N 2.72 | R 3.03 | A 2.77 | E 3.28 | V 2.84 | D 3.36 | Y 2.16 | W 1.87 | F 2.49 | I 2.51

Variants of: B2
Assay: as above
Settings: c terminus: a fixed tail appended

Protein stability index of substitutions, site by site:
I7: R 2.46 | K 2.1 | Y 1.92 | P 2.25 | N 2.64 | H 1.87 | L 1.99 | G 2.35 | D 3.27 | T 2.31 | A 2.15 | V 2.24 | F 2.2 | C 2.78 | W 1.9 | M 2.67 | E 2.22 | S 3.04 | Q 2.24
Q2: L 1.94 | A 1.99 | N 2.42 | R 2.62 | H 2.21 | D 2.35 | C 1.99 | T 2.65 | S 2.43 | Y 2.08 | P 2.06 | G 2.3 | W 1.84 | M 2.7 | E 2.3 | V 1.57 | I 2.08 | F 1.58 | K 2.21
F1: K 2.96 | I 3.03 | V 2.81 | C 2.69 | T 3.11 | M 2.08 | Y 2.51 | N 2.59 | P 3.05 | R 3.03 | H 2.69 | A 3.04 | Q 2.99 | W 2.41 | L 3.01 | E 2.57 | D 2.83 | S 2.77
R3: F 1.75 | K 2.6 | S 1.65 | N 2.66 | E 2.69 | A 2.8 | V 2.04 | P 1.96 | W 1.58 | L 2.37 | H 1.93 | D 2.71 | T 1.79 | Y 1.6 | M 2.68 | I 2.17 | Q 2.26 | G 2.17 | C 2.38
E8: A 2.7
N5: H 1.88 | I 2.36 | P 2.36 | G 2.57 | C 2.62 | Q 2.36 | E 3.05 | V 2.29 | T 1.88 | R 2.56 | L 2.83 | K 2.42 | S 2.02 | Y 2.33 | F 1.59 | A 2.59 | D 2.23 | W 2.1 | M 2.5
M6: V 2.14 | S 3.25 | P 2.25 | A 2.56 | R 2.92 | K 2.52 | D 2.31 | C 1.74 | H 2.33 | N 2.27 | F 1.93 | E 3.08 | I 2.25 | Y 2.48 | T 3.15 | L 1.63 | Q 2.74 | W 3.61 | G 2.57
R4: V 3.02 | A 2.21 | S 2.35 | C 2.02 | I 2.14 | T 2.6 | N 2.7 | D 1.98 | Y 2.42 | E 2 | P 1.73 | H 2.13 | Q 2.85 | G 1.9 | M 1.86 | K 1.95 | L 2.51 | W 1.96
